This test has as its target Neurabin (Nrb), endogenous in rat cortical neurons (rat (endogenous in primary cortical neurons)) (UniProt O35867). Briefly: co-IP.
Sequence of UniProt O35867 (O35867 whole entry): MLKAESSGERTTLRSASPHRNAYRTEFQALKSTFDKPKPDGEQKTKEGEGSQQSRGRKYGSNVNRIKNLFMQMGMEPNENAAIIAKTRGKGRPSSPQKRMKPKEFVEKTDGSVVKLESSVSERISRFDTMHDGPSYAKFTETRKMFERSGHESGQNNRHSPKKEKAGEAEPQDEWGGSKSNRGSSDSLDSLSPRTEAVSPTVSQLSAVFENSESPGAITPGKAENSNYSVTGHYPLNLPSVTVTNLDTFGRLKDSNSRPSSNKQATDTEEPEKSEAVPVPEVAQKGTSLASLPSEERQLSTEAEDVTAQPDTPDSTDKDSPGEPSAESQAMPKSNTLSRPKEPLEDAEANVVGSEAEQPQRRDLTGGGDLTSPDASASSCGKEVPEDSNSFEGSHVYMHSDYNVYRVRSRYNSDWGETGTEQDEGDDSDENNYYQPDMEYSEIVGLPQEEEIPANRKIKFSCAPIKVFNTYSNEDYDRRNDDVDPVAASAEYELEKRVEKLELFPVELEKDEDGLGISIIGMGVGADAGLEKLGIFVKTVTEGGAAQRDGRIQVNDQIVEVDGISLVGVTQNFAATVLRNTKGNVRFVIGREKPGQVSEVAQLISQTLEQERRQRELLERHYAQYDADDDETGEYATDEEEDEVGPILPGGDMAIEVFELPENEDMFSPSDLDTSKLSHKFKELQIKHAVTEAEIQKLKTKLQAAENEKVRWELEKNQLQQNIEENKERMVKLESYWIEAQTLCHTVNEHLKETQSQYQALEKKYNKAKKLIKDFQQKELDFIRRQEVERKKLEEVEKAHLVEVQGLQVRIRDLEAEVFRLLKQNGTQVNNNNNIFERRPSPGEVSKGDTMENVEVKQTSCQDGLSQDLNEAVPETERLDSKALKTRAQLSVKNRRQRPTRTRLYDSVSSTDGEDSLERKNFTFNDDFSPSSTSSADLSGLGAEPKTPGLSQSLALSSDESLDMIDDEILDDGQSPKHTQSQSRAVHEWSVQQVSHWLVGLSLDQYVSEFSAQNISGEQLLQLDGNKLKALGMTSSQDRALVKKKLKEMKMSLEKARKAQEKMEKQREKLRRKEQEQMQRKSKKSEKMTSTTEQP

As to “Protein phosphatase-1 (PP1), endogenous in rat cortical neurons (from UniProt P62138 1-330) (enzyme)”, the PP1 co-IPed with Nrb after forskolin, percent of no forskolin control stood at 62.8%.
